In article doi:10.1101/2020.12.23.424221:
Where two headings read alike, the source gives them in different places.

What was measured:
Assay in all cases: single-molecule TIRF microscopy
[1] = target: Taxol-stabilized rhodamine-labeled biotinylated microtubules (bovine) (UniProt Q6B856)
[2] = target: Taxol-stabilized rhodamine-labeled biotinylated microtubules (bovine) (UniProt Q6B856); remark: listed apart in the source
[3] = target: Taxol-stabilized rhodamine-labeled biotinylated microtubules (bovine) (UniProt Q6B856); remark: listed apart in the source
[4] = target: Taxol-stabilized rhodamine-labeled biotinylated microtubules (bovine) (UniProt Q6B856); remark: listed apart in the source
[5] = target: Taxol-stabilized rhodamine-labeled biotinylated microtubules (bovine) (UniProt Q6B856); remark: listed apart in the source
[6] = target: Taxol-stabilized rhodamine-labeled biotinylated microtubules (bovine) (UniProt Q6B856); remark: listed apart in the source
[7] = target: Taxol-stabilized rhodamine-labeled biotinylated microtubules (bovine) (UniProt Q6B856); remark: listed apart in the source
[8] = target: Taxol-stabilized rhodamine-labeled biotinylated microtubules (bovine) (UniProt Q6B856); remark: listed apart in the source
[9] = target: Taxol-stabilized rhodamine-labeled biotinylated microtubules (bovine) (UniProt Q6B856); remark: listed apart in the source
[10] = target: Taxol-stabilized rhodamine-labeled biotinylated microtubules (bovine) (UniProt Q6B856); remark: listed apart in the source
[11] = target: Taxol-stabilized rhodamine-labeled biotinylated microtubules (bovine) (UniProt Q6B856); remark: listed apart in the source
[12] = target: Taxol-stabilized rhodamine-labeled biotinylated microtubules (bovine) (UniProt Q6B856); remark: listed apart in the source

lifetime on the microtubule (median) [1]: 4.2 s
lifetime on the microtubule (median) [2]: 2.1 s
lifetime on the microtubule (median) [3]: 7.2 s
lifetime on the microtubule (median) [4]: 3.9 s
lifetime on the microtubule (median) [5]: 3.6 s
lifetime on the microtubule (median) [6]: 9 s
lifetime on the microtubule (median) [7]: 4.9 s
lifetime on the microtubule (median) [8]: 8.3 s
lifetime on the microtubule (median) [9]: 17.9 s
lifetime on the microtubule (median) [10]: 1.8 s
lifetime on the microtubule (median) [11]: 1.2 s
lifetime on the microtubule (median) [12]: 1.5 s
B1: GFP-tagged Kif4A (natural protein)
chain: MKEEVKGIPVRVALRCRPLVPKEISEGCQMCLSFVPGEPQVVVGTDKSFTYDFVFDPSTEQEEVFNTAVAPLIKGVFKGYNATVLAYGQTGSGKTYSMGGAYTAEQENEPTVGVIPRVIQLLFKEIDKKSDFEFTLKVSYLEIYNEEILDLLCPSREKAQINIREDPKEGIKIVGLTEKTVLVALDTVSCLEQGNNSRTVASTAMNSQSSRSHAIFTISLEQRKKSDKNSSFRSKLHLVDLAGSERQKKTKAEGDRLKEGININRGLLCLGNVISALGDDKKGGFVPYRDSKLTRLLQDSLGGNSHTLMIACVSPADSNLEETLNTLRYADRARKIKNKPIVNIDPQTAELNHLKQQVQQLQVLLLQAHGGTLPGSITVEPSENLQSLMEKNQSLVEENEKLSRGLSEAAGQTAQMLERIILTEQANEKMNAKLEELRQHAACKLDLQKLVETLEDQELKENVEIICNLQQLITQLSDETVACMAAAIDTAVEQEAQVETSPETSRSSDAFTTQHALRQAQMSKELVELNKALALKEALARKMTQNDSQLQPIQYQYQDNIKELELEVINLQKEKEELVLELQTAKKDANQAKLSERRRKRLQELEGQIADLKKKLNEQSKLLKLKESTERTVSKLNQEIRMMKNQRVQLMRQMKEDAEKFRQWKQKKDKEVIQLKERDRKRQYELLKLERNFQKQSNVLRRKTEEAAAANKRLKDALQKQREVADKRKETQSRGMEGTAARVKNWLGNEIEVMVSTEEAKRHLNDLLEDRKILAQDVAQLKEKKESGENPPPKLRRRTFSLTEVRGQVSESEDSITKQIESLETEMEFRSAQIADLQQKLLDAESEDRPKQRWENIATILEAKCALKYLIGELVSSKIQVSKLESSLKQSKTSCADMQKMLFEERNHFAEIETELQAELVRMEQQHQEKVLYLLSQLQQSQMAEKQLEESVSEKEQQLLSTLKCQDEELEKMREVCEQNQQLLRENEIIKQKLTLLQVASRQKHLPKDTLLSPDSSFEYVPPKPKPSRVKEKFLEQSMDIEDLKYCSEHSVNEHEDGDGDDDEGDDEEWKPTKLVKVSRKNIQGCSCKGWCGNKQCGCRKQKSDCGVDCCCDPTKCRNRQQGKDSLGTVERTQDSEGSFKLEDPTEVTPGLSFFNPVCATPNSKILKEMCDVEQVLSKKTPPAPSPFDLPELKHVATEYQENKAPGKKKKRALASNTSFFSGCSPIEEEAH
